Measured values taken from publication PMC5364132, “Anti-Biofilm Activity of a Self-Aggregating Peptide against Streptococcus mutans” (Frontiers in Microbiology, 2017).

Molecular target: the molecule itself
Experiment: FTIR spectroscopy; peptides at 1 and 0.1 mg/ml in PBS, 8 μl dried as thin films on the ATR surface; spectra 1800-1500 cm^-1; peaks at 1621 and 1695 cm^-1 read as antiparallel β-sheet assembly

B1: synthetic peptide P1 (peptide)
peptide: PARKARAATAATAATAATAATAAT
notes: 24-amino acid synthetic peptide designed with repeated motifs of the Ixodes tick antifreeze glycoprotein (IAFGP); Not the streptococcal adhesin P1 (AgI/II, PAc); also called antivirulence peptide P1; source: synthetic peptide (Genscript, >80% purity)
B1: binds.
